The values below come from article PMC3325211, “Mutations in MITF and PAX3 Cause “Splashed White” and Other White Spotting Phenotypes in Horses”.

In this data set the target is MITF wild-type (DNA-binding fragment) (UniProt Q95MD1 112-207). The data set is described as follows: EMSA; 5 mM MgCl2; 20 mM Tris, 50 mM NaCl, 5 mM MgCl2, 1 mM DTT, 33 ug/ml BSA, pH 7.4, on ice 30 min; 6% native PAGE in 0.5x TBE. The note with it: protein: recombinant; (Ni-NTA purified); chain copies: 2; label: radioactive label. (In general: In EMSA bound probe runs differently from free probe, usually more slowly.)
MITF wild-type (DNA-binding fragment), sequence (Q95MD1 entry or part of it): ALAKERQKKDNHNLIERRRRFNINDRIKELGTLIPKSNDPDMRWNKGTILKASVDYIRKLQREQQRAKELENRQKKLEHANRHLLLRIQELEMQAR

B1: M-box oligonucleotide (dsDNA)
DNA 1: GGAAAGTTAGTCATGTGCTTTTCAGAAGA
DNA 2: TCTTCTGAAAAGCACATGACTAACTTTCC
With B1, the binding result is “binds”.
